B1: Hammerhead Ribozyme (parent)
chain: ACCGGAUGUGCUUUCCGGUCUGAUGAGUCCGUGAGGACGAAACAG

The series covers variants of B1. Put plainly: self-cleavage, relative activity (ratio to wild type); higher = more cleavage; co-transcriptional.
With G5A U12A, the self-cleavage came to 1.22.
Next, U7A A41U: 0.258; G5C G25C: 0.397.
Next, C3U A42C: 0.406; G10U C38A: 0.645; C43U G45U: 0.423.
Next, G10U U19G: 0.435; C3U U13C: 1.33; C3A A26C: 0.292.
For C2U A44U, the self-cleavage amounted to 0.646.
For the variant U19C G22U, the self-cleavage was found to be 0.267.
Next, U19G A34G: 0.345.
Next, G10U C20G: 0.343; G5A C11U: 0.804; A1C C29A: 0.31.
As for A23C A40G, the self-cleavage is 0.351.
Next, C38A A41G: 0.338.
Next, U12C A40U: 0.379; U32C C38A: 0.691.
Next, G10A G35U: 0.925.
Consider U7G A42C, for which the self-cleavage amounted to 0.271.
Next, C2A C38U: 0.606; U14C U28C: 0.706; G4A U19C: 0.276.
Next, G31U A41G: 0.364; C2G G39A: 0.342.
Consider G8U, for which the self-cleavage amounted to 1.02.
Next, G8A U32C: 1.02; C2U C15U: 0.76; G8A A44U: 0.648.
In the case of C29U C38G, the self-cleavage came to 0.559.
Next, G27A A41C: 0.339; C2U U14C: 0.474.
U24G C38A: the self-cleavage amounted to 0.742.
Next, G18A C43G: 0.28; A1U C11A: 1.01; A34G A44C: 0.41.
Take U21C G25A: the self-cleavage was found to be 0.336.
Next, G4C G18U: 0.284; A6C A23U: 0.271.
Next, C20U G36C: 0.327.
C20U G36U: the self-cleavage was found to be 0.359.
Next, U12A G36A: 0.571.
Next, C20A U28G: 0.552; C38U G45U: 0.593; G5A G31C: 1.32.
Next, G25C A26U: 0.337; C15G G17C: 0.323; C11A G27C: 0.724.
A1C A41G: the self-cleavage turned out to be 0.328.
Next, G36A A41U: 0.279; C2G C43U: 0.305; C20G A42U: 0.313.
Next, G4C: 0.784.
Next, U12A A26U: 0.587.
With G10C G36C, the self-cleavage amounted to 0.84.
Next, A1G G5A: 1.04.
On to U28G C30U, for which the self-cleavage was determined as 0.83.
Consider U19C C43U, for which the self-cleavage amounted to 0.376.
Regarding A1G A41U, the self-cleavage was 0.42.
Next, C2G C16U: 0.299.
Next, U21A G39U: 0.301; A1U U21G: 0.303.
With A6U U7G, the self-cleavage came to 0.829.
Next, U13A G36C: 1.03; U28C A37G: 0.914; U28C A37C: 0.467.
Next, G25C U28G: 0.311.
Next, G8U A23C: 0.504.
In the case of C15A G36U, the self-cleavage was determined as 0.341.
U7A G45U: the self-cleavage was determined as 0.484.
C16U G31C: the self-cleavage was found to be 0.844.
For the variant G5A G27C, the self-cleavage amounted to 0.61.
Next, U12C C16A: 0.908.
Next, U19G G39A: 0.378; G17C A37C: 0.505.
Next, U9G G25U: 0.242.
For G17A U24C, the self-cleavage worked out at 0.88.
Next, A1U G39C: 0.356; G8A G25A: 0.405.
Next, C2A G27A: 0.438; U28C G33C: 0.906; U7G C15A: 0.89.
Next, A34U A42U: 0.306; A6G G31U: 0.945; G5C A37C: 0.259.
Regarding G5U G10U, the self-cleavage turned out to be 1.15.
Turning to C20A G39U, the self-cleavage is 0.329.
Next, C15G U28C: 0.528; G4U A41C: 0.276.
Next, G31A U32A: 1.06; G31A U32C: 1.
Next, C15A C43A: 0.341.
Take G33C: the self-cleavage is 0.997.
Next, G33U: 0.977; C38U G39C: 0.584.
For the variant G4A U12G, the self-cleavage was 0.541.
U28A G39A: the self-cleavage worked out at 0.422.
U21A C38G: the self-cleavage is 0.378.
Next, G8C A40G: 0.372; A37G A41U: 0.378; C29A U32C: 0.866.
Next, C3G G39U: 0.284; A6G C43U: 0.321.
For the variant U14G A44G, the self-cleavage was 1.32.
As for C2U G35A, the self-cleavage was determined as 0.871.
Next, G39U C43G: 0.298; U32G G35A: 0.473; U28C A41C: 0.29.
Next, U9C A41G: 0.356.
As to U14C G39A, the self-cleavage came out at 0.349.
Next, U14A C20A: 0.44; G8C G31C: 0.822.
For the variant A1U G5C, the self-cleavage amounted to 0.287.
Next, C2A G5A: 0.37; C11A U13G: 0.853.
Next, C30U A41G: 0.35; G22A A41G: 0.365; G5U C43A: 0.352.
Next, U7C A42G: 0.306; G4C G45A: 0.355.
A6G C16G: the self-cleavage was determined as 0.537.
Next, U28A G33C: 1.15; U19C A44U: 0.258.
Next, C16A C43G: 0.294.
Next, G17A A40C: 0.347; U19A A26U: 0.255.
Take U7A G10C: the self-cleavage was determined as 1.34.
With G5U C29U, the self-cleavage stood at 0.682.
Regarding G18U G22C, the self-cleavage is 0.372.
Next, U21C U32G: 0.947.
Turning to C15G A34C, the self-cleavage is 0.671.
Next, C3G U32C: 0.433.
Next, A6C A40C: 0.386; A37U C38U: 0.714.
As to U28A A41U, the self-cleavage was 0.303.
Next, U28A A41G: 0.398; C11U C30U: 0.736; C3U G25U: 0.345.
Next, U24A C30U: 0.785.
With C15U G22U, the self-cleavage stood at 0.386.
In the case of G8C G10C, the self-cleavage came to 1.47.
Take U12C U32G: the self-cleavage was 0.502.
Next, U24C G27U: 0.335; A1G U28C: 1.79.
Next, A6G U9C: 0.834; A6G U9A: 0.796.
As to A40C, the self-cleavage was 0.73.
Next, G5A A6U: 0.696; U12G G18C: 0.61; C11U C15G: 1.04.
Next, C2G A34G: 0.279; A1U A23G: 0.383; G35U A41U: 0.311.
Next, G22U C43A: 0.293; A34G C43G: 0.471; G10C U32G: 0.638.
Consider G4U A6G, for which the self-cleavage stood at 0.327.
As to G22A G39A, the self-cleavage stood at 0.367.
Next, G31C G36A: 0.527; G18C A34U: 0.409; G17C G31C: 0.563.
Next, A6G A34G: 0.6; C16A A42C: 0.399.
Next, C3U C11G: 1.25; C15G U32G: 0.574; G18U A37G: 0.629.
